Like-named read-outs stand apart in the source and are kept apart here. Values belong to the molecule of their own block, whether it stands above or below them.
Legend:
[1] = biological target: apo-transferrin (iron-unbound transferrin) (human) (UniProt P02787)
[2] = biological target: apo-transferrin (iron-unbound transferrin) (human) (UniProt P02787); experiment: SPR
[3] = biological target: human α-thrombin (human) (UniProt P00734)
[4] = biological target: T1, apo-transferrin (iron-unbound transferrin) (human, UniProt P02787 20-698); experiment: SPR
[5] = biological target: T1, apo-transferrin (iron-unbound …)
[6] = biological target: T1, apo-transferrin (iron-unbound …); experiment: SPR; remark: listed apart in the source
[7] = biological target: T1, apo-transferrin (iron-unbound …); experiment: SPR; remark: listed apart in the source

stoichiometry N (Tf per thrombin) [1]: 1
Kd [2]: 7.7 nM
Molecule: human α-thrombin (from UniProt P00734) (enzyme)

stoichiometry N [5]: 1 Tf per FXIIa
Kd [6]: 13.9 nM
koff [6]: 0.0025 s⁻¹
kon [6]: 180000 M⁻¹ s⁻¹
B1: human α-FXIIa (enzyme)
chain 1: IPPWEAPKEHKYKAEEHTVVLTVTGEPCHFPFQYHRQLYHKCTHKGRPGPQPWCATTPNFDQDQRWGYCLEPKKVKDHCSKHSPCQKGGTCVNMPSGPHCLCPQHLTGNHCQKEKCFEPQLLRFFHKNEIWYRTEQAAVARCQCKGPDAHCQRLASQACRTNPCLHGGRCLEVEGHRLCHCPVGYTGAFCDVDTKASCYDGRGLSYRGLARTTLSGAPCQPWASEATYRNVTAEQARNWGLGGHAFCRNPDNDIRPWCFVLNRDRLSWEYCDLAQCQTPTQAAPPTPVSPRLHVPLMPAQPAPPKPQPTTRTPPQSQTPGALPAKREQPPSLTRNGPLSCGQRLRKSLSSMTR
chain 2: VVGGLVALRGAHPYIAALYWGHSFCAGSLIAPCWVLTAAHCLQDRPAPEDLTVVLGQERRNHSCEPCQTLAVRSYRLHEAFSPVSYQHDLALLRLQEDADGSCALLSPYVQPVCLPSGAARPSETTLCQVAGWGHQFEGAEEYASFLQEAQVPFLSLERCSAPDVHGSSILPGMLCAGFLEGGTDACQGDSGGPLVCEDQAAERRLTLQGIISWGSGCGDRNKPGVYTDVAYYLAWIREHTVS

More lines, now with the values behind:

Molecule: apo-transferrin (iron-unbound transferrin) (from UniProt P02787 20-698) (natural protein)
enzymatic activity of thrombin on a chromogenic substrate, Tf at 0.2, 1 and 5 μM [3]: 1.8 fold

Molecule: FXII (natural protein)
Kd [2]: 40 nM
koff [2]: 0.0012 s⁻¹
kon [2]: 30000 M⁻¹ s⁻¹

Molecule: RRNHSCEPCQTLAVRSYR [FX18]
Kd [4]: 143 nM
koff [4]: 0.0004 s⁻¹
kon [4]: 2800 M⁻¹ s⁻¹

B2: fibrinogen (complex)
chain 1: ADSGEGDFLAEGGGVRGPRVVERHQSACKDSDWPFCSDEDWNYKCPSGCRMKGLIDEVNQDFTNRINKLKNSLFEYQKNNKDSHSLTTNIMEILRGDFSSANNRDNTYNRVSEDLRSRIEVLKRKVIEKVQHIQLLQKNVRAQLVDMKRLEVDIDIKIRSCRGSCSRALAREVDLKDYEDQQKQLEQVIAKDLLPSRDRQHLPLIKMKPVPDLVPGNFKSQLQKVPPEWKALTDMPQMRMELERPGGNEITRGGSTSYGTGSETESPRNPSSAGSWNSGSSGPGSTGNRNPGSSGTGGTATWKPGSSGPGSTGSWNSGSSGTGSTGNQNPGSPRPGSTGTWNPGSSERGSAGHWTSESSVSGSTGQWHSESGSFRPDSPGSGNARPNNPDWGTFEEVSGNVSPGTRREYHTEKLVTSKGDKELRTGKEKVTSGSTTTTRRSCSKTVTKTVIGPDGHKEVTKEVVTSEDGSDCPEAMDLGTLSGIGTLDGFRHRHPDEAAFFDTASTGKTFPGFFSPMLGEFVSETESRGSESGIFTNTKESSSHHPGIAEFPSRGKSSSYSKQFTSSTSYNRGDSTFESKSYKMADEAGSEADHEGTHSTKRGHAKSRPVRGIHTSPLGKPSLSP
chain 2: QGVNDNEEGFFSARGHRPLDKKREEAPSLRPAPPPISGGGYRARPAKAAATQKKVERKAPDAGGCLHADPDLGVLCPTGCQLQEALLQQERPIRNSVDELNNNVEAVSQTSSSSFQYMYLLKDLWQKRQKQVKDNENVVNEYSSELEKHQLYIDETVNSNIPTNLRVLRSILENLRSKIQKLESDVSAQMEYCRTPCTVSCNIPVVSGKECEEIIRKGGETSEMYLIQPDSSVKPYRVYCDMNTENGGWTVIQNRQDGSVDFGRKWDPYKQGFGNVATNTDGKNYCGLPGEYWLGNDKISQLTRMGPTELLIEMEDWKGDKVKAHYGGFTVQNEANKYQISVNKYRGTAGNALMDGASQLMGENRTMTIHNGMFFSTYDRDNDGWLTSDPRKQCSKEDGGGWWYNRCHAANPNGRYYWGGQYTWDMAKHGTDDGVVWMNWKGSWYSMRKMSMKIRPFFPQQ
chain 3: YVATRDNCCILDERFGSYCPTTCGIADFLSTYQTKVDKDLQSLEDILHQVENKTSEVKQLIKAIQLTYNPDESSKPNMIDAATLKSRKMLEEIMKYEASILTHDSSIRYLQEIYNSNNQKIVNLKEKVAQLEAQCQEPCKDTVQIHDITGKDCQDIANKGAKQSGLYFIKPLKANQQFLVYCEIDGSGNGWTVFQKRLDGSVDFKKNWIQYKEGFGHLSPTGTTEFWLGNEKIHLISTQSAIPYALRVELEDWNGRTSTADYAMFKVGPEADKYRLTYAYFAGGDAGDAFDGFDFGDDPSDKFFTSHNGMQFSTWDNDNDKFEGNCAEQDGSGWWMNKCHAGHLNGVYYQGGTYSKASTPNGYDNGIIWATWKTRWYSMKKTTMKIIPFNRLTIGEGQQHHLGGAKQAGDV
stoichiometry N [7]: 4 apo-Tf per fibrinogen

Molecule: RIGKHSRTRYERNIEK [TH16]
Kd [4]: 97 nM
koff [4]: 0.0003 s⁻¹
kon [4]: 3100 M⁻¹ s⁻¹

Source: doi:10.1101/646075 (bioRxiv, 2019)
